Laboratory results: patent publication US20230190801A1

Biological target: CD38 (human) (UniProt P28907)
Test: cell-based or functional assay

daratumumab (antibody) showed a daratumumab-induced fratricide of expanded NK cells (1 µg/mL daratumumab, 4 h, PI flow cytometry) (times lower (g-NK vs cNK)) of 13 and a g-NK cell-mediated cytotoxicity against daratumumab-treated MM cell lines, correlation with CD38 expression of 0.92 R^2.
